Measured values taken from paper doi:10.1101/2025.09.08.674899 (bioRxiv, 2025).

Target: T1, PSAF subunit of Chlamydomonas reinhardtii Photosystem I (Chlamydomonas reinhardtii (endogenous …, UniProt P12356 63-227))
T1 sequence (looked up): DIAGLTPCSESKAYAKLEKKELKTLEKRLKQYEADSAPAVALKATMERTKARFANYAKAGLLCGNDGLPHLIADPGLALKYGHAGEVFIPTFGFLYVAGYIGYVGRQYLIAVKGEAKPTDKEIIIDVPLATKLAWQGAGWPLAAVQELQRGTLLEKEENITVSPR
Assay: cross-linking

B1: Chlamydomonas reinhardtii cytochrome c6 E71Q (natural protein)
chain: ADLALGAQVFNGNCAACHMGGRNSVMPEKTLDKAALEQYLDGGFKVESIIYQVENGKGAMPAWADRLSEEQIQAVAEYVFKQATDAAWKY
modifications: heme (c-type cytochrome)
binding result: binds
